{
  "source": "IntAct's records for PubMed 20133654",
  "parents": {"B1": {"name": "Obscurin-like protein 1 (Homo sapiens), O75147 (parent)", "chain": "MKASSGDQGSPPCFLRFPRPVRVVSGAEAELKCVVLGEPPPVVVWEKGGQQLAASERLSFPADGAEHGLLLTAALPTDAGVYVCRARNAAGEAYAAAAVTVLEPPASDPELQPAERPLPSPGSGEGAPVFLTGPRSQWVLRGAEVVLTCRAGGLPEPTLYWEKDGMALDEVWDSSHFALQPGRAEDGPGASLALRILAARLPDSGVYVCHARNAHGHAQAGALLQVHQPPESPPADPDEAPAPVVEPLKCAPKTFWVNEGKHAKFRCYVMGKPEPEIEWHWEGRPLLPDRRRLMYRDRDGGFVLKVLYCQAKDRGLYVCAARNSAGQTLSAVQLHVKEPRLRFTRPLQDVEGREHGIAVLECKVPNSRIPTAWFREDQRLLPCRKYEQIEEGTVRRLIIHRLKADDDGIYLCEMRGRVRTVANVTVKGPILKRLPRKLDVLEGENAVLLVETLEAGVEGRWSRDGEELPVICQSSSGHMHALVLPGVTREDAGEVTFSLGNSRTTTLLRVKCVKHSPPGPPILAEMFKGHKNTVLLTWKPPEPAPETPFIYRLERQEVGSEDWIQCFSIEKAGAVEVPGDCVPSEGDYRFRICTVSGHGRSPHVVFHGSAHLVPTARLVAGLEDVQVYDGEDAVFSLDLSTIIQGTWFLNGEELKSNEPEGQVEPGALRYRIEQKGLQHRLILHAVKHQDSGALVGFSCPGVQDSAALTIQESPVHILSPQDRVSLTFTTSERVVLTCELSRVDFPATWYKDGQKVEESELLVVKMDGRKHRLILPEAKVQDSGEFECRTEGVSAFFGVTVQDPPVHIVDPREHVFVHAITSECVMLACEVDREDAPVRWYKDGQEVEESDFVVLENEGPHRRLVLPATQPSDGGEFQCVAGDECAYFTVTITDVSSWIVYPSGKVYVAAVRLERVVLTCELCRPWAEVRWTKDGEEVVESPALLLQKEDTVRRLVLPAVQLEDSGEYLCEIDDESASFTVTVTEPPVRIIYPRDEVTLIAVTLECVVLMCELSREDAPVRWYKDGLEVEESEALVLERDGPRCRLVLPAAQPEDGGEFVCDAGDDSAFFTVTVTAPPERIVHPAARSLDLHFGAPGRVELRCEVAPAGSQVRWYKDGLEVEASDALQLGAEGPTRTLTLPHAQPEDAGEYVCETRHEAITFNVILAEPPVQFLALETTPSPLCVAPGEPVVLSCELSRAGAPVVWSHNGRPVQEGEGLELHAEGPRRVLCIQAAGPAHAGLYTCQSGAAPGAPSLSFTVQVAEPPVRVVAPEAAQTRVRSTPGGDLELVVHLSGPGGPVRWYKDGERLASQGRVQLEQAGARQVLRVQGARSGDAGEYLCDAPQDSRIFLVSVEEPLLVKLVSELTPLTVHEGDDATFRCEVSPPDADVTWLRNGAVVTPGPQVEMAQNGSSRILTLRGCQLGDAGTVTLRAGSTATSARLHVRETELLFLRRLQDVRAEEGQDVCLEVETGRVGAAGAVRWVRGGQPLPHDSRLSMAQDGHIHRLFIHGVILADQGTYGCESHHDRTLARLSVRPRQLRVLRPLEDVTISEGGSATFQLELSQEGVTGEWARGGVQLYPGPKCHIHSDGHRHRLVLNGLGLADSGCVSFTADSLRCAARLIVREVPVTIVRGPHDLEVTEGDTATFECELSQALADVTWEKDGNALTPSPRLRLQALGTRRLLQLRRCGPSDAGTYSCAVGTARAGPVRLTVRERTVAVLSELRSVSAREGDGATFECTVSEVETTGRWELGGRPLRPGARVRIRQEGKKHILVLSELRAEDAGEVRFQAGPAQSLALLEVEALPLQMCRHPPREKTVLVGRRAVLEVTVSRSGGHVCWLREGAELCPGDKYEMRSHGPTHSLVIHDVRPEDQGTYCCQAGQDSTHTRLLVEGN"}},
  "data": [
    {"variants_of": "B1", "details": "with titin_human TTN", "values": [
      {"variant": "F17R", "effect of a mutation on the interaction": "decreasing interaction"}
    ]}
  ]
}
